According to publication PMC2868900:
pIC50: −log10 of the molar value.

Each substance was assayed against thymidylate synthase (TS) (zebrafish) (UniProt A0ACM8Q3Q5) (assay: competition EMSA). Settings: 37 C, 10 min; 100 ng TS (200 ng in Fig. 5B legend), 1 ng 32P TS mRNA; non-denaturing 5% acrylamide gel (60:1); binding buffer, salt and pH not given (cited ref.).
Chain of thymidylate synthase (TS) (zebrafish) (A0ACM8Q3Q5 entry or part of it): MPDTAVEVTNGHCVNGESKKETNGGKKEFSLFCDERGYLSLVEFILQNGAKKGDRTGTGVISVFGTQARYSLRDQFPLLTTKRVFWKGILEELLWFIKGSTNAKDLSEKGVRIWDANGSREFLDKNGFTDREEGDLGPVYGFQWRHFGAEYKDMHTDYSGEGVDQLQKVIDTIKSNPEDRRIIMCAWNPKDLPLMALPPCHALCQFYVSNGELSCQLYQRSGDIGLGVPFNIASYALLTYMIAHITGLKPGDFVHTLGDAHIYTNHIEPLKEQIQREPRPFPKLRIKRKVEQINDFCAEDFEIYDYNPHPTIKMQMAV
For TS1-36, the pIC50 was 9.22. TS1-72 showed a pIC50 of 9.19. TS1-145 was tested, and the pIC50 was 9.28. With TS1-290 the pIC50 was 9.32. Substance TS1-580 has a pIC50 of 9.32. TS37-74 (TS37-72 in Methods) was tested, and the pIC50 was < 6.00. For TS73-145, the pIC50 was < 6.00. In the case of TS146-290, the pIC50 was < 6.00. For TS291-580, the pIC50 was < 6.00. With TS581-1163 the pIC50 was < 6.00. Work on full-length TS mRNA (TS1-1163) yielded a pIC50 of 9.30.

Same assay, conditions: vs 32P full-length TS mRNA; 100-fold excess also did not compete (Fig. 3); 37 C, 10 min; 100 ng TS (200 ng in Fig. 5B legend), 1 ng 32P TS mRNA; non-denaturing 5% acrylamide gel (60:1); binding buffer, salt and pH not given (cited ref.)
For luciferase mRNA, the pIC50 was < 6.00.
